{"source": "patent US20210054097A1", "about": "(Novo Nordisk, published 2021)", "key": {"[1]": {"molecular_target": "T1, FX activation peptide 12-mer SVAQATSSSGEA (human)", "T1 peptide": "SVAQATSSSGEA-biotin", "test": "peptide ELISA", "procedure": "(§1) The peptides were C-terminally conjugated to biotin and 50 μL of 1 μg/mL peptide solution was used for immobilization in discrete wells of the microtiter plate which was pre-coated with 1 μg/mL streptavidin. Each well was washed with washing buffer (10 mM Tris, 150 mM NaCl, 2.5 mM CaCl₂, 0.05% Tween 20, pH 8.60) followed by addition of 50 μL of 2 μg/mL FLAG-tagged anti-FX Nanobody® or IgG antibody to be tested. After 1 hour non-bound Nanobody®/antibody was washed off using washing buffer.\n(§2) Bound anti-FX activation peptide ligand was detected by first binding a HRP-labelled secondary antibody (for FLAG-tagged Nanobodies: Anti-FLAG mAb M2-Peroxidase (HRP) (Sigma Aldrich, US), for antibody: Fcγ Fragment Specific Peroxidase AffiniPure F(ab′)₂ Fragment Goat Anti-Human IgG (Jackson ImmunoResearch Laboratories, Inc., US), or Peroxidase AffiniPure Goat Anti-Mouse IgG (Jackson ImmunoResearch Laboratories, Inc., US)) for 1 hour, and then adding 100 μL TMB-1 ELISA substrate (Kem-En-Tec Diagnostics, Denmark)."}, "[2]": {"molecular_target": "T2, FX activation peptide 12-mer VAQATSSSGEAP (human)", "T2 peptide": "VAQATSSSGEAP-biotin", "test": "peptide ELISA", "procedure": "as §1, §2"}, "[3]": {"molecular_target": "T3, FX activation peptide 12-mer AQATSSSGEAPD (human)", "T3 peptide": "AQATSSSGEAPD-biotin", "test": "peptide ELISA", "procedure": "as §1, §2"}, "[4]": {"molecular_target": "T4, FX activation peptide 12-mer QATSSSGEAPDS (human)", "T4 peptide": "QATSSSGEAPDS-biotin", "test": "peptide ELISA", "procedure": "as §1, §2"}, "[5]": {"molecular_target": "T5, FX activation peptide 12-mer ATSSSGEAPDSI (human)", "T5 peptide": "ATSSSGEAPDSI-biotin", "test": "peptide ELISA", "procedure": "as §1, §2"}, "[6]": {"molecular_target": "T6, FX activation peptide 12-mer TSSSGEAPDSIT (human)", "T6 peptide": "TSSSGEAPDSIT-biotin", "test": "peptide ELISA", "procedure": "as §1, §2"}, "[7]": {"molecular_target": "T7, FX activation peptide 12-mer SSSGEAPDSITW (human)", "T7 peptide": "SSSGEAPDSITW-biotin", "test": "peptide ELISA", "procedure": "as §1, §2"}, "[8]": {"molecular_target": "T8, FX activation peptide 12-mer SSGEAPDSITWK (human)", "T8 peptide": "SSGEAPDSITWK-biotin", "test": "peptide ELISA", "procedure": "as §1, §2"}, "[9]": {"molecular_target": "T9, FX activation peptide 12-mer SGEAPDSITWKP (human)", "T9 peptide": "SGEAPDSITWKP-biotin", "test": "peptide ELISA", "procedure": "as §1, §2"}, "[10]": {"molecular_target": "T10, FX activation peptide 12-mer GEAPDSITWKPY (human)", "T10 peptide": "GEAPDSITWKPY-biotin", "test": "peptide ELISA", "procedure": "as §1, §2"}, "[11]": {"molecular_target": "T11, FX activation peptide 12-mer PDSITWKPYDAA (human)", "T11 peptide": "PDSITWKPYDAA-biotin", "test": "peptide ELISA", "procedure": "as §1, §2"}, "[12]": {"molecular_target": "T12, FX activation peptide 12-mer SITWKPYDAADL (human)", "T12 peptide": "SITWKPYDAADL-biotin", "test": "peptide ELISA", "procedure": "as §1, §2"}, "[13]": {"molecular_target": "T13, FX activation peptide 12-mer ITWKPYDAADLD (human)", "T13 peptide": "ITWKPYDAADLD-biotin", "test": "peptide ELISA", "procedure": "as §1, §2"}, "[14]": {"molecular_target": "T14, FX activation peptide 12-mer TWKPYDAADLDP (human)", "T14 peptide": "TWKPYDAADLDP-biotin", "test": "peptide ELISA", "procedure": "as §1, §2"}, "[15]": {"molecular_target": "T15, FX activation peptide 12-mer WKPYDAADLDPT (human)", "T15 peptide": "WKPYDAADLDPT-biotin", "test": "peptide ELISA", "procedure": "as §1, §2"}, "[16]": {"molecular_target": "T16, FX activation peptide 12-mer KPYDAADLDPTE (human)", "T16 peptide": "KPYDAADLDPTE-biotin", "test": "peptide ELISA", "procedure": "as §1, §2"}, "[17]": {"molecular_target": "T17, FX activation peptide 12-mer PYDAADLDPTEN (human)", "T17 peptide": "PYDAADLDPTEN-biotin", "test": "peptide ELISA", "procedure": "as §1, §2"}, "[18]": {"molecular_target": "T18, FX activation peptide 12-mer YDAADLDPTENP (human)", "T18 peptide": "YDAADLDPTENP-biotin", "test": "peptide ELISA", "procedure": "as §1, §2"}, "[19]": {"molecular_target": "T19, FX activation peptide 12-mer DAADLDPTENPF (human)", "T19 peptide": "DAADLDPTENPF-biotin", "test": "peptide ELISA", "procedure": "as §1, §2"}, "[20]": {"molecular_target": "T20, FX activation peptide 12-mer AADLDPTENPFD (human)", "T20 peptide": "AADLDPTENPFD-biotin", "test": "peptide ELISA", "procedure": "as §1, §2"}, "[21]": {"molecular_target": "T21, FX activation peptide 12-mer ADLDPTENPFDL (human)", "T21 peptide": "ADLDPTENPFDL-biotin", "test": "peptide ELISA", "procedure": "as §1, §2"}, "[22]": {"molecular_target": "T22, FX activation peptide 12-mer DLDPTENPFDLL (human)", "T22 peptide": "DLDPTENPFDLL-biotin", "test": "peptide ELISA", "procedure": "as §1, §2"}, "[23]": {"molecular_target": "T23, FX activation peptide 12-mer TENPFDLLDFNQ (human)", "T23 peptide": "TENPFDLLDFNQ-biotin", "test": "peptide ELISA", "procedure": "as §1, §2"}, "[24]": {"molecular_target": "T24, FX activation peptide 12-mer NPFDLLDFNQTQ (human)", "T24 peptide": "NPFDLLDFNQTQ-biotin", "test": "peptide ELISA", "procedure": "as §1, §2"}, "[25]": {"molecular_target": "T25, FX activation peptide 12-mer FDLLDFNQTQPE (human)", "T25 peptide": "FDLLDFNQTQPE-biotin", "test": "peptide ELISA", "procedure": "as §1, §2"}, "[26]": {"molecular_target": "T26, FX activation peptide 12-mer DLLDFNQTQPER (human)", "T26 peptide": "DLLDFNQTQPER-biotin", "test": "peptide ELISA", "procedure": "as §1, §2"}, "[27]": {"molecular_target": "T27, FX activation peptide 12-mer LLDFNQTQPERG (human)", "T27 peptide": "LLDFNQTQPERG-biotin", "test": "peptide ELISA", "procedure": "as §1, §2"}, "[28]": {"molecular_target": "T28, FX activation peptide 12-mer LDFNQTQPERGD (human)", "T28 peptide": "LDFNQTQPERGD-biotin", "test": "peptide ELISA", "procedure": "as §1, §2"}, "[29]": {"molecular_target": "T29, FX activation peptide 12-mer FNQTQPERGDNN (human)", "T29 peptide": "FNQTQPERGDNN-biotin", "test": "peptide ELISA", "procedure": "as §1, §2"}, "[30]": {"molecular_target": "T30, FX activation peptide 12-mer NQTQPERGDNNL (human)", "T30 peptide": "NQTQPERGDNNL-biotin", "test": "peptide ELISA", "procedure": "as §1, §2"}, "[31]": {"molecular_target": "T31, FX activation peptide 12-mer QTQPERGDNNLT (human)", "T31 peptide": "QTQPERGDNNLT-biotin", "test": "peptide ELISA", "procedure": "as §1, §2"}, "[32]": {"molecular_target": "T32, FX activation peptide 12-mer TQPERGDNNLTR (human)", "T32 peptide": "TQPERGDNNLTR-biotin", "test": "peptide ELISA", "procedure": "as §1, §2"}, "[33]": {"molecular_target": "human activated Factor X (human, UniProt P00742 41-179; P00742 235-488)", "sequence (P00742 41-179, chain 1 of 2)": "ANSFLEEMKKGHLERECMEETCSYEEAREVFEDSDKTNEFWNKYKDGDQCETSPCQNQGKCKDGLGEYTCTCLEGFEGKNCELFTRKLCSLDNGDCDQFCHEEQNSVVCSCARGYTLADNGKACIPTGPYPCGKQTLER", "sequence (P00742 235-488, chain 2 of 2)": "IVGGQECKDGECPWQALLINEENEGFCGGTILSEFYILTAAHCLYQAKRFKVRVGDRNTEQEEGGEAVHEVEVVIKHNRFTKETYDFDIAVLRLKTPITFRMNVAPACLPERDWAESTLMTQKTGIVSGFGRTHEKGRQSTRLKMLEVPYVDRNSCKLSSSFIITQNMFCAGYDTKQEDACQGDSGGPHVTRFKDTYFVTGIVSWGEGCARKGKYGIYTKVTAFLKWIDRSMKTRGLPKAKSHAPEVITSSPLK", "test": "cell-based or functional assay"}}, "note": "Ends that are not written are not given here.", "data": [{"binder": "Nb 730C03 (VHH, monovalent Nanobody; also called Nb 730003; not shown: C-terminal FLAG3 and HIS6 tag) VHH: EVQLVESGGGVVQPGGSLRLSCVASGFTFSDYAMSWVRQAPGKGLEWVSGITSGSGRTYYADSVKGRFTISRDNSKNTVYLQMNSLRPEDTALYYCAAAILRGYRKTYDYWGQGTLVTVSS", "values": [{"measurement": "ELISA signal relative to background", "setting": "[1]", "result": 1.21}, {"measurement": "ELISA signal relative to background", "setting": "[2]", "result": 1.24}, {"measurement": "ELISA signal relative to background", "setting": "[3]", "result": 1.19}, {"measurement": "ELISA signal relative to background", "setting": "[4]", "result": 1.14}, {"measurement": "ELISA signal relative to background", "setting": "[5]", "result": 1.19}, {"measurement": "ELISA signal relative to background", "setting": "[6]", "result": 1.2}, {"measurement": "ELISA signal relative to background", "setting": "[7]", "result": 1.21}, {"measurement": "ELISA signal relative to background", "setting": "[8]", "result": 1.22}, {"measurement": "ELISA signal relative to background", "setting": "[9]", "result": 1.18}, {"measurement": "ELISA signal relative to background", "setting": "[10]", "result": 1.24}, {"measurement": "ELISA signal relative to background", "setting": "[11]", "result": 1.24}, {"measurement": "ELISA signal relative to background", "setting": "[12]", "result": 1.18}, {"measurement": "ELISA signal relative to background", "setting": "[13]", "result": 1.2}, {"measurement": "ELISA signal relative to background", "setting": "[14]", "result": 1.26}, {"measurement": "ELISA signal relative to background", "setting": "[15]", "result": 1.14}, {"measurement": "ELISA signal relative to background", "setting": "[16]", "result": 1.17}, {"measurement": "ELISA signal relative to background", "setting": "[17]", "result": 1.2}, {"measurement": "ELISA signal relative to background", "setting": "[18]", "result": 1.28}, {"measurement": "ELISA signal relative to background", "setting": "[19]", "result": 1.24}, {"measurement": "ELISA signal relative to background", "setting": "[20]", "result": 1.21}, {"measurement": "ELISA signal relative to background", "setting": "[21]", "result": 1.25}, {"measurement": "ELISA signal relative to background", "setting": "[22]", "result": 1.26}, {"measurement": "ELISA signal relative to background", "setting": "[23]", "result": 2.1}, {"measurement": "ELISA signal relative to background", "setting": "[24]", "result": 2.82}, {"measurement": "ELISA signal relative to background", "setting": "[25]", "result": 1.28}, {"measurement": "ELISA signal relative to background", "setting": "[26]", "result": 1.18}, {"measurement": "ELISA signal relative to background", "setting": "[27]", "result": 1.1}, {"measurement": "ELISA signal relative to background", "setting": "[28]", "result": 1.14}, {"measurement": "ELISA signal relative to background", "setting": "[29]", "result": 1.16}, {"measurement": "ELISA signal relative to background", "setting": "[30]", "result": 1.22}, {"measurement": "ELISA signal relative to background", "setting": "[31]", "result": 1.1}, {"measurement": "ELISA signal relative to background", "setting": "[32]", "result": 1.06}, {"measurement": "FXa amidolytic activity (relative to free FXa, fold)", "setting": "[33]", "result": 1.01, "unit": "fold"}]}]}
